Substitutions are numbered along the chain they refer to.
T1: cynomolgus monkey 4-1BB on CHO-K1 cells (cynomolgus monkey)
T1 chain: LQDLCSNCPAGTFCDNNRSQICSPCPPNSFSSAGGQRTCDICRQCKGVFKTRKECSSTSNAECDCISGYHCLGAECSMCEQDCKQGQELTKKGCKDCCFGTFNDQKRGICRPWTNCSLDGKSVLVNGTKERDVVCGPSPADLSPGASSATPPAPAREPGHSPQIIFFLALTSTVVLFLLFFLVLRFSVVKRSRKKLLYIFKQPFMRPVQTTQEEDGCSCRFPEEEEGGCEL

B1: PR007139 (bispecific antibody)
light: DIQMTQSPSTLSASVGDRVTVTCRASQSIYIWLAWYQQKPGKAPNLLIYKASSLETGVPSRFSGSGSGTEFTLTISSLQPDDFATYYCQQYYGSSRTFGQGTKVEIKRTVAAPSVFIFPPSDEQLKSGTASVVCLLNNFYPREAKVQWKVDNALQSGNSQESVTEQDSKDSTYSLSSTLTLSKADYEKHKVYACEVTHQGLSSPVTKSFNRGEC
heavy: EVQLVESGGGLVQPGGSLRLSCAASGFTFSSYWMSWVRQAPGKGLEWVANIKQEGSEKYYVDSVKGRFTISRDNAKNSLYLQMNSLRAEDTAVYYCARDRAVAGAFDIWGQGTMVTVSSASTKGPSVFPLAPSSKSTSGGTAALGCLVKDYFPEPVTVSWNSGALTSGVHTFPAVLQSSGLYSLSSVVTVPSSSLGTQTYICNVNHKPSNTKVDKKVEPKSCDKTHTCPPCPAPEAAGAPSVFLFPPKPKDTLMISRTPEVTCVVVDVSHEDPEVKFNWYVDGVEVHNAKTKPREEQYNSTYRVVSVLTVLHQDWLNGKEYKCKVSNKALPAPIEKTISKAKGQPREPQVYTLPPSREEMTKNQVSLTCLVKGFYPSDIAVEWESNGQPENNYKTTPPVLDSDGSFFLYSKLTVDKSRWQQGNVFSCSVMHEALHNHYTQKSLSLSPGGGSGGSEVQLVESGGGLVKPGGSLRLSCAASGFTFSDYYMSWIRQAPGKGLEWVSYISSSGSTIDYADSVKGRFTISRDNAKNSLYLQMNSLRAEDTAVYYCAREREEVAGTLDYDNWGQGTLVTVSS
B2: PR007149 (bispecific antibody)
light: B1 light
heavy: EVQLVESGGGLVQPGGSLRLSCAASGFTFSSYWMSWVRQAPGKGLEWVANIKQEGSEKYYVDSVKGRFTISRDNAKNSLYLQMNSLRAEDTAVYYCARDRAVAGAFDIWGQGTMVTVSSASTKGPSVFPLAPSSKSTSGGTAALGCLVKDYFPEPVTVSWNSGALTSGVHTFPAVLQSSGLYSLSSVVTVPSSSLGTQTYICNVNHKPSNTKVDKKVEPKSCDKTHTCPPCPAPEAAGAPSVFLFPPKPKDTLMISRTPEVTCVVVDVSHEDPEVKFNWYVDGVEVHNAKTKPREEQYNSTYRVVSVLTVLHQDWLNGKEYKCKVSNKALPAPIEKTISKAKGQPREPQVYTLPPSREEMTKNQVSLTCLVKGFYPSDIAVEWESNGQPENNYKTTPPVLDSDGSFFLYSKLTVDKSRWQQGNVFSCSVMHEALHNHYTQKSLSLSPGGGSGGSEVQLVESGGGLVKPGGSLRLSCTTSGFTFSDYYMNWVRQAPGKGLEWVSYISNNGSTIYYADSVKGRFTISRDNAKNSLYLQMNSLRAEDTAVYYCARVRPGGSGNYWDWFDPWGQGTPVTVSS
B3: PR007138 (bispecific antibody)
light: B1 light
heavy: B2 heavy with T477V, V491I, L499Q, N507G
B4: PR007146 (bispecific antibody)
light: B1 light
heavy: B1 heavy with I491V, Y534F, Q536E, Y563F
B5: PR007143 (bispecific antibody)
light: B1 light
heavy: B1 heavy with A477V, I491F, S507G, S510T, E556A, Y563F, L571P
B6: PR007145 (bispecific antibody)
light: B1 light
heavy: B2 heavy with T477A, T478A, N489S, V491I, N507R, N508S, P573L
B7: PR007141 (bispecific antibody)
light: B1 light
heavy: B1 heavy with A477V, I491F, S507G, S510T, E556P, Y563F
B8: PR003551 (bispecific antibody)
light: B1 light
heavy: EVQLVESGGGLVQPGGSLRLSCAASGFTFSSYWMSWVRQAPGKGLEWVANIKQEGSEKYYVDSVKGRFTISRDNAKNSLYLQMNSLRAEDTAVYYCARDRAVAGAFDIWGQGTMVTVSSASTKGPSVFPLAPSSKSTSGGTAALGCLVKDYFPEPVTVSWNSGALTSGVHTFPAVLQSSGLYSLSSVVTVPSSSLGTQTYICNVNHKPSNTKVDKKVEPKSCDKTHTCPPCPAPEAAGGPSVFLFPPKPKDTLMISRTPEVTCVVVDVSHEDPEVKFNWYVDGVEVHNAKTKPREEQYNSTYRVVSVLTVLHQDWLNGKEYKCKVSNKALGAPIEKTISKAKGQPREPQVYTLPPSREEMTKNQVSLTCLVKGFYPSDIAVEWESNGQPENNYKTTPPVLDSDGSFFLYSKLTVDKSRWQQGNVFSCSVMHEALHNHYTQKSLSLSPGEPKSSDKTHTPPPPPRTEVQLLESGGGLVQPGGSLRLSCAASGFIFSNFAMTWVRQPPEKGLKWVSSINGSGFNTYYTDSVKGRFTISRDNSRNTLYLQMNRLTAEDTAVYFCAKEGSSETDDHYYNVDVWGQGTTVTVSS
B9: PR000701 (bispecific antibody)
chain 1: not shown
chain 2: EVQLVESGGGLVQPGGSLRLSCAASGFTFSSYWMSWVRQAPGKGLEWVANIKQEGSEKYYVDSVKGRFTISRDNAKNSLYLQMNSLRAEDTAVYYCARDRAVAGAFDIWGQGTMVTVSSASTKGPSVFPLAPSSKSTSGGTAALGCLVKDYFPEPVTVSWNSGALTSGVHTFPAVLQSSGLYSLSSVVTVPSSSLGTQTYICNVNHKPSNTKVDKKVEPKSC
chain 3: not shown
B10: PR001830 (antibody, V domains shown)
VH: EVQLLESGGGLVQPGGSLRLSCTASGFTFSNYAMSWVRQAPEKGLEWVSSISGSGGSTFYADSVKGRFTISRDNSKNTLYLQMNSLRAEDTAVYFCAKEGSSETDDHYYNVDVWGQGTTVTVSS
B11: PR001836 (antibody, V domains shown)
VH: EVQLLESGGGLVQPGGSLRLSCAASGFIFSNFAMTWVRQPPEKGLKWVSSINGSGFNTYYTDSVKGRFTISRDNSRNTLYLQMNRLTAEDTAVYFCAKEGSSETDDHYYNVDVWGQGTTVTVSS
B12: PR001833 (antibody, V domains shown)
VH: B10 VH with T23A, N31S, S101A, S102T, H107Y, Y108H, Y109F, V111T
B13: PR001831 (antibody, V domains shown)
VH: EVQLVESGGGVIQPGGSLRLSCEASGFTFSSYAMSWVRQAPEKGLEWVSSISGSGDSTYYADSVKGRFTISRDNSKNTLYLQMNSLRAEDTAGYHCAKEGSNGTDDYHYDIDVWGQGTSVTVSS

These binders were tested against T2, human PD-L1 on CHO-K1 cells (human, UniProt Q9NZQ7 19-290) (assay: FACS; MDA-MB-231 cells).
T2 sequence (Q9NZQ7 19-290): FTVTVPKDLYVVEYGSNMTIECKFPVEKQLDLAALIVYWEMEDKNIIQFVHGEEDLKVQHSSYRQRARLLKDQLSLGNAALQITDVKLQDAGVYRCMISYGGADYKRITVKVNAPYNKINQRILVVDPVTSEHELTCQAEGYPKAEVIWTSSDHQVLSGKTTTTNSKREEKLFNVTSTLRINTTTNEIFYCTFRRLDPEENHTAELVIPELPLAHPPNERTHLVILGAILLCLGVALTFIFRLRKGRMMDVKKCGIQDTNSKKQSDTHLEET

Row | EC50 [nM] | Binder
1 | 0.257 | B1
2 | 0.206 | B2
3 | 0.202 | B3
4 | 0.327 | B4
5 | 0.315 | B5
6 | 0.286 | B6
7 | 0.331 | B7

What follows are binders tested against T3, human 4-1BB on CHO-K1 cells (human, UniProt Q07011 24-255) (assay: FACS).

Row | EC50 [nM] | Binder
8 | 6.84 | B1
9 | 2.36 | B2
10 | 3.15 | B3
11 | 6.95 | B4
12 | 3.4 | B5
13 | 22.4 | B6
14 | 4.62 | B7

Target: T3, human 4-1BB on CHO-K1 cells
Assay: FACS
Remark: another data set of the same source

Row | EC50 [nM] | Binder
15 | 3.15 | B8
16 | 10.2 | B9

What follows are binders tested against T3, human 4-1BB on CHO-K1 cells (assay: FACS blocking of 4-1BBL).
Target sequence in this assay (Q07011 24-255): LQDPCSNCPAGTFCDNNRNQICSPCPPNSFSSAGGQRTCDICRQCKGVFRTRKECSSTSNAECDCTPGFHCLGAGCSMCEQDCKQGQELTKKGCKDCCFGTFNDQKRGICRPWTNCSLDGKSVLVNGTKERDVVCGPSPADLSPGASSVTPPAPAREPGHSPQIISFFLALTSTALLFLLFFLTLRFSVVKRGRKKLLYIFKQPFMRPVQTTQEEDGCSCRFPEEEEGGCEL

Row | IC50 [nM] | Binder
17 | 2.32 | B10
18 | 2.12 | B11
19 | 2.31 | B12
20 | 4.05 | B13

Target: T1, cynomolgus monkey 4-1BB on CHO-K1 cells
Assay: FACS; FIG. 12E

Row | EC50 [nM] | Binder
21 | 0.899 | B10
22 | 2.41 | B11
23 | 1.02 | B12
24 | 2.58 | B13

Target: T3, human 4-1BB on CHO-K1 cells
Assay: FACS
Remark: another data set of the same source
Target sequence in this assay (Q07011 24-255): as above

Row | EC50 [nM] | Binder
25 | 0.209 | B10
26 | 0.28 | B11
27 | 0.21 | B12

Each binder was assayed against T2, human PD-L1 on CHO-K1 cells (assay: FACS).

Row | EC50 [nM] | Binder
28 | 1.29 | B8
29 | 1.72 | B9

Source: patent publication US20230242658A1 (published 2023)
